From the NTF2 design screens of Basanta et al. (2020)

Assay: protease stability score; higher = more stable; yeast display proteolysis, trypsin and chymotrypsin;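 also: relative to predicted unfolded state with 0 unfolded-like and 1 meaning tenfold more protease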

| Sequence | protease stability score |
| --- | --- |
| SEEEEVLRHLSKTFTRAMLTGDWKFLFEFADPHVRNDVGDWTRIGMHSMIELLELLHRELRITHLHIDEVRVIGNKAEWEGRNNVRINGQEDKRDVRLELEIVDGKMSLVNVEFK | 0.364 |
| SEEEEVMERFVELLIKLLITGDEEVLEHLMDPNVRIQIGDKVYHGREVARDLWRRYHRHWRIHDTEVKHHHVQGEFIEIHISIDGEIDGRREEERIIFFVVKINGRWLLHDIHFN | 2.51 |
| SEEEEWAEIASKLEIEIYLTGDFERFRKFADPHVRYEIHIDGREFKIHGMELYSEWLLRFKGVRLFIKDERISVIGDKLYIHINGDLEFNGRRQDVHFEFLTLKVDGRWIVKKIRNESR | 1.59 |
| SEEEEWAHELMRLLIEFNETGDEHELHNLIDPNVRIVIGEYTIIGREIAIEWTRQARIKRVHIEDYRFQGDKLHVDSRSNGKYGDKEDTLKVEIIVEKINGKWVVREVRVK | 2.06 |
| SEEEEWIIKVLRELTKSMETGDEDHLHHLADPDVRLHVGDKEFHGREDFKKWYTHLRIKHFELTDMRIQGEKAHLKVRVHMRYGDKEDRKEVDFTMIKIDGRWYLHSVHVR | 2.09 |
| SEEEEWIRRALEILIEIIRTGDEDSSKRYVDPHVRLHIGDKEFHGREDFTRMVHELFNRVDHIEIRIHDMRIINGQAHVDTELILRQGDKEIVLRTEIVLLKFDGKWIMESVHIR | 1.29 |
| SEEEEWLRRYRHLFKHLWTTGDWRTLEELLDPRTRIDIDVGDKRYHIHGREDAVEFFHRERRELGIDHIEDKRTRVIDGQVEIHGKIHVDGRDETRTIHVIVVNGRMKYLYFHVE | 0.5 |
| SEEEEWMEEFRERWERNFMTGDEDAMRELADPNVRIDIGEWDVHGREHLAELLKRHLDTLGINHVEFDHSTVIDGVIHIHMTINVNGKRIYSEVRLLVVNGKLKHSHYDIK | 1.01 |
| SEEEEYALKVLEDILKAFLTGDWKITEHLLDPDARLEINGRNFVGRELIRKYLEEYLRRIDVVRIKIRHVEVQGDKNHLEGELIEIQGDKHKSMDMKIHLVIINGRVRREHVRVE | 2.15 |
| SEEEEYAREFLERHLHSLKTGDWREEHKQADPEVRLHIGDKEFHGREIFVKIQREILEQADHLRIHIRRVHVQGDFLHIDGELRIRINGREHYIDRKVIVWKFNGRWHLHEVSIE | 1.39 |
| SEEEEYARHFMTLVMSNLHTGNFEESRQNADPRTRVVIGDKRLHGWDEFAREYHEELRDRGVEIHFRVHHIEEFDGRLLTDFSIEIRYGDKVDHIRIRLYVTKINGRWFIKELEFR | 1.1 |
| SEEEEYARKAAEEFIKHVETGNEDKIILLFDPNALYVYNGVELIGWHVFKEHTHRFKNIRRHITHVEIRVINGVVHVHIDGRFHVNGVDVEQEINIVFRKINGRWKIESNEERFR | 1.57 |
| SEEEEYFRFVAEEFLKAWSTGNEEILERLFDPRVRLSFNGKQFHGRERVHDKLMQLLEHLGINHTRIDDREFRIIGDKAEIRIDLILHVGDKTLRVEVILIITKVNGVWMMKEVELRIH | 1.51 |
| SEEEEYLRRVAELILRLLITGDEDEHHNLADPNTLVLIDINGVHIRDHGWWALRRWWEELERRVPGMRVRPRNMTVQGEKVILHMETVIGDKRLRLDFYHLVIDGKITSVEIKVDES | 2.4 |
| SEEEEYVTKYTRHWLHSHVTGDEDYLRRYADPHVRVDINGREVHGRDEAAHFIERVLRHIREEHLDDRDFTVINGKSILHGELKISINGQEWRVNFDIIIVVVNGRFKREEVRVK | 0.858 |
| SEEEFFTEMALRIYIELFETGDEHLIERLADPNVIIDFNGREFIGREYFSRIFHFLRRHWRMRDVTLKDWRVFDGRLHMEVQLYGKVNGQETQRDTHLVSTKINGRWRIHSDKWD | 1.25 |
| SEEEHDAHIALKIWLDNLFTGDEEKLKEMMDPNVRMDFDGRHIHGREAIEMLLRRVDHWHHIEVRLEHLRIIGDKVILHIRQVEHIQIGDKHDRVHSNITLVFLKFDGKWFIREIRIK | 2.78 |
| SEEEHDTRNALKIIIRTLITGNEDERRKLLDPHVRLEFEGWHEHGRDAAHLLSFWYRERVDVLRDSKVEHVELQGDKIRMDIILISEYNGVHTSTHVHIVVEKFNGRWHMRSIFFL | 1.16 |
| SEEEHDTRRAIEIFLRIIMTGNEEDFERLFDPDARSEWNGVELHGREIITHIWLEIFDRFPNIKIEVRVERYRIQGEKVDIDMELIFRVGDKEDSRKTRMHVLKVDGKWTVKLFKIK | 2.33 |
| SEEEHDVEFVRRLQEEVWHTGDEDKLEELLDPDARAHVNGVTYHGREFVHFFYKRVDHVHHYQIEETRVVGDKLHLISRTDLVINGQRVKTELRWNITKVNGKWRVTEVRID | 1.06 |
| SEEEHDVERSIKHFLHILETGDWKELYEQMDPNVRIEIDGKFIIGREASVHHFNRYDHHRSRIEIKHVDVYGDKLNVHGHIHEHFSVNGKDITRSMRVILHARKVDGQWIHTEVRYK | 1.32 |
| SEEEHDWRRALKIFLESLTTGDPKSITELVDPNARSDINGVDLHGREEWSKEMNRIKNLTIHDFEIEHISIYDGKAEINGHLDFEFDGVRTKIEVHLIFEKVDGKWVIQSRIVK | 0.895 |
| SEEEHEADLLHKELWESWHTGDEKHLTNLMDPNVRLQIGDKHYVGRENALNVLHFIRRKLGIKYFELESVTHHEINGRIHTIFDGSILINGKTVKDKIEVDTEKYNGQWRITQINIDFR | 2.24 |
| SEEEHEAIKHAYEFLEWLRTGDEEKIEKLLDPNVRLIIGDKTAHGREEFIRVMKEELERMGVNVFRLRDTRVNIFDGRVEIRFDTDLHFNGKTVHVELILRVHKVDGRWVLESVQVNIH | 1.48 |
| SEEEHEEREAIEQLTRSLTTGDEHMMTNNMDPNVRIHIDGRDLVGREEAIKWLQEIHKKYKNIKYEIKRIDSFNGRLIVDGRVEYNGRRVDMHLIALKFDGRWLIEEVRVN | 2.26 |

| Sequence | protease stability score |
| --- | --- |
| SEEEHEFKKFLEHFLHRLTTGDEDELRRLADPHVRVLINGRHIVGMDEVTKVLRHLREIIEELRIDDIDLQGDKIRMDTRTRIRFIIGDWETKIETRTRIFIWKFNGRWIMEHIERD | 0.811 |
| SEEEHEIRLAFKQVIETLITGDEHIMTQLLDPNVKIRQGDKILHGREEAHKWADEWLRRVDHFEDMKIHRHSVFNGRLELDSEQVVIQGDKTISIRSEIILTKINGRWQIEELRFD | 1.43 |
| SEEEHEIRRAVEHWYRSLHTGDEEESIDLVDPHTITIVNGREVHGRHLMYEIMRKFKNAKIEFEITHHEVVNGRADVNMRLTVHIGDKTYETIIHLHTEKVNGRWTVRHWEVK | 1.46 |
| SEEEHELDHIAKEFLRVYLTGDEDELRKLMDPNARVDINGREMIGMELILKDLRDRLEHLGIKHSHITIREVQNFDGQIHIRGHIRIEIGNKRLEFDSRIIMHVIDGRLRSFHVIFI | 1.92 |
| SEEEHELKHWMKLFKHMIETGDWDSLVHYLDPHTRMHVGEFHHHGRHLMLKAFHDFLREMGAKHSDHKDSEITIQGDKVELTLDTRSQVGDKEFNVRIININRKVNGRWIIHSIIIEVE | 1.09 |
| SEEEHEMERHEREFRDVAETGDERDWTNLADPNVRFEDEDEVLVGREDWHEYVRRVDHFHVRRLDYEHFSVIDGRIDIEGNMDIELNFDGQSHRMRVHVRIITTKINGVWLFESVHIQ | 1.75 |
| SEEEHEQENWARLMLHLFLTGDEEILLELFDPNVRSDVDGRKFHGRDEVSHAIRWILEHFGFKHSHVRHFEIYNGRVHSEVEINVDGVRLTLHIHLNIYNGRLKDSEFRLK | 0.967 |
| SEEEHFAKELHKLFLEWWKTGDEEHLLEFADPDARSEIGDKRHHGREEVSRELLEFRRRIPGVQIRHQHVSVHLIDGKLTTHLHFRVNFNGVEFHETIIYYNDKYNGKWHLKSIIVTIE | 0.954 |
| SEEEHHAEEFVKIFTMTNLTGDFTTLEKLADPNVQIDVGDKHFHGREEMLKLIQDERREFGFKHLHLEIDRIETQGNFLDVHITVIIRVNGVEMRHKRRLTILKIDGQWHIKSVEVD | 1.27 |
| SEEEHHAKKIAEDFLRWFITGDEDVLSHYADPDVRSRIGDKHHHGREELRRVMERLVRELRIKEIRIERYEVQGEKAILDSRVRGDVNGVEVEVRQIVIVVVIDGRLKSMELRLG | 0.516 |
| SEEEHHARYMTQLFLHALETGDWHELRRMADPNMRLRVRVGDKHWHYHGWEHLHELLESFLKRVDHVEFIERSIHVQGEKSRFRGDVREHVGDKEHTHHIILILDIVNGKIHRIIIINE | 1.37 |
| SEEEHHDRLMTDFFIEIMRTGDEKEFIDLFDPHDRTHIDGVDAHGREIAVELLHLFLRKLGFDHIRVTDVHVYNGKVELHMRSDQGDKHVEVQIHSVVYNGKLQHLHVKIRTL | 1.63 |
| SEEEHHDRMVSHLWIKLWSTGDEDRIRELLDPNAKFELEQGDKEVHDHGRESIAKWLEIMFRHLGVKHFRLEHVHVFNGRIEVIMRLDVGDKHITIILRTQVIDGRIKSFVIETRHK | 1.17 |
| SEEEHHFERWMRVFLHSMRTGDPSSFEELLDPNTRFIYGDKERHGREEANKWAHHLRITHMEDTDFDVYDGVLTIDIRLDFVVNGRRHEVKTHLLVVKIDGRWLINEVEIK | 0.514 |
| SEEEHHVVRMMELLIDLLMTGDEEVFDSLVDPDVKSNINGVHSVGMESINEIFRRYVDFFKNVKVDVHLRDREAQGDKHITYGVRIERFDGKQFTIDTRLELKVVNGRIKDVKVDIK | 1.46 |
| SEEEHISERAMELLSESIRTGNEHLISKLADPHTRMLYGDKELHGRSRWSEWASRVKNMRFETHEVRVVGDKIRSDVRSNFDGRLHIEHLYILKIDGRWVLDKIEIE | 0.246 |
| SEEEHITKLALDMWFTSLLTGDEHTFRHLLDPNVRVHIDGREYHGREHWRDLLTYLLTHLGVDHMEFRTRDQDVVGDKITLVTEIIIHVGDKNLSFESELIVAKVDGRWRIRSEDYR | 0.645 |
| SEEEHIVKEAVRLWYEAVHTGDPHTLNEFLDPHMRIEIGDKEKHGRHELKKLTEHIRIERLEFTLTHMKIVGNKAHVYGHLRFEGDWDGQRIHTEVETRLHIIKYDGKWMTEEVHIR | 1.97 |
| SEEEHKIRKLLEDLANFIRTGDEHRINELLDPNVMIDINGQKFHGRESLETVYHEWLKRVDHIEDLRIDDISKQGEFLIMHANMTLRQGDKHHRENVHIIILKVDGRWIMTSILFR | 2.2 |
| SEEEHLAREMTELHKQAELTGDEHFLNELMDPHVRIDINGVPAIGWEESNEVLKRIWEEMRIDDIRPTHVELQGNKIHVHVQSHITIDGQRRIFHERIVIVVFNGRMREVKFDIH | 1.19 |
| SEEEHLFEFVIRVIYHAMKTGDWEFWERYLDPHVRYQQGDKEHHGRKMTLHYLERLSDELGVTRIEVDLKHIHVYNGRVEIIGELNINGRRTEVRITSEKINGRWTVKELHIV | 1.55 |
| SEEEHLLKFFLDVLMDLHSTGDERKLYELFDPNVRIEYDGKETHGRERAREQFQEMRVRVEHVHIKDLTLQGDKVIIDTKVDMTIHIDGKTIREDRKLQVDFDKVDGRWTVHELIFR | 1.13 |
| SEEEHLLREILERIIHIYSTGDEQILKHLMDPHVKITVEVNGRRIIFHGMEQYIQWYRDLGFDHSKVKLRDHRIIGDKAHAVTELEIHFDGKRREEETREVIVVIDGRLTTWHTSVN | 0.898 |
| SEEEHLMRELLEVFLRNMLTGDWDKTAKLADPDTRFRAHVGDFKVERHGMEQFIKWLKDEREQWRIRRIHIDRIELVDGVIRVEGTIDVEYDGVREVERSELILVIIDGRIHEVEVHIR | 1.44 |
| SEEEHLSKLTKKHMLHLWETGNETILEELADPNARHRWLVNGKEVTAHGREEVTRLFRDILDELGVDHLKLHSETVIGEKIHFDMIMIIGEFESRVRLNLHIVNGRIKEIDLQEQ | 0.445 |
